Columns and labels:
Nsp9COV19 (15N-labeled) [1] = molecular target: T1, Nsp9COV19 (15N-labeled) (SARS-CoV-2, UniProt P0DTD1 4141-4253); assay: 15N-1H HSQC NMR titration
Nsp9COV19 (15N-labeled) [2] = molecular target: T1, Nsp9COV19 (15N-labeled); assay: 15N-1H HSQC NMR titration; remark: listed apart in the source

Binder | binding result (Nsp9COV19 (15N-labeled) [1]) | Kd (Nsp9COV19 (15N-labeled) [2])
AUUCG (ssRNA) [RNA.1 (5 nt ssRNA)] | binds | 
UUGGAGUU (ssRNA) [RNA.2 (8 nt ssRNA)] |  | ~550 µM

— paper PMC8317483
